Assay [1] has as its target Mga4-His6 (Group A Streptococcus (Streptococcus pyogenes), M4 serotype strain GA40634). Kind of assay: AUC.
Assay [2] has the same target. Description: SEC.
The target is the same in assay [3]. Description: AUC. This is another data set of the same source.

Several values for one entry are separate records, joined by “and”; a condition that tells them apart may be missing. Equal entries are not always repeated. Where two headings read alike, the source gives them in different places.

A word on the Kd: it is the free concentration of one partner at which half of the binding sites on the other are occupied at equilibrium, for simple one-to-one binding. A low value points to a tighter complex. As a reminder, the stoichiometry N is a count of units in the complex or per binding partner. For the substance Mga4-His6 (natural protein), the figures for the Kd in assay [1] and in assay [3] were 6.13 µM and 9.41 µM, respectively. In addition, the stoichiometry N in assay [2] is 2 and 4 and 6.

(Values after PMC3324284.)
